Experimental data reported in patent US20050142135A1, “Agents and methods for modulating interactions between gonadotropin hormones and receptors” (University of Kentucky Research Foundation, priority 2003, published 2005).
Changes are numbered by the printed parent chain.

Legend:
[1] = test system: human FSHR; assay: ^125I-FSH binding to wild type and mutant FSH receptors on intact stably transfected HEK 293 cells; details: for FSH binding / Kd compared with the wild type receptor, in words: intact HEK 293 cells
Experimental: (§1) Mutant FSHR cDNAs were prepared in the pSELECT vector using the Altered Sites Mutagenesis system (Promega), sequenced on a Beckman CEQ 2000XL capillary sequencer, subcloned into pcDNA3 (Invitrogen), and sequenced again to verify mutation sequences. […] Wild type and mutant receptor constructs were transfected into HEK 293 cells by the calcium phosphate method as previously described. Stable cell lines were established in minimum essential medium containing 10% horse serum and 500 μg/ml of G418. These cells were used for hormone binding, cAMP production. All assays were carried out in duplicate and repeated 4-5 times, and means±S.D. were calculated.
(§2) The Kd values were determined by Scatchard plots. For intracellular cAMP assay, cells were washed twice with Dulbecco's modified Eagle's medium and incubated in the medium containing 0.1 μg/ml isobutylmethylxanthine for 15 mm. Increasing concentrations of FSH were then added and incubation was continued for 45 mm at 37° C. After removing the medium, the cells were rinsed once with fresh medium without isobutylmethylxanthine, lysed in 70% ethanol, freeze-thawed in liquid nitrogen, and scraped.
Each mutant human FSHR cDNA was prepared in a pSELECT vector using the non-PCR based Altered Sites Mutagenesis System (Promega), sequenced on a Beckman CEQ 2000XL capillary sequencer and subcloned into pcDNA3 (Invitrogen) as described. After subcloning pcDNA3 the mutant cDNAs were sequenced again. Plasmids were transfected into human embryonic kidney (HEK) 293 cells by the calcium phosphate method. Stable cell lines were established in minimum essential medium containing 10% horse serum and 500 μg/ml of G-418, and then used for hormone binding and cAMP assay. All assays were carried out in duplicate and repeated 4-6 times. Means and standard variations were calculated.
(§3) Human FSH (the National Hormone and Pituitary Program) was radioiodinated as previously described for radioiodination of hCG. […] The Kd values were determined by Scatchard plots. Truncated exodomain was solubilized in Nonidet P-40 and assayed for hormone binding as described previously. For intracellular cAMP assay, cells were washed twice with Dulbecco's modified Eagle's media and incubated in the media containing isobutylmethylxanthine (0.1 mg/ml) for 15 minutes. Increasing concentrations of FSH were then added and the incubation was continued for 45 minutes at 37° C. After removing the media, the cells were rinsed once with fresh media without isobutylmethylxanthine, lysed in 70% ethanol, freeze-thawed in liquid nitrogen, and scraped. […] Exoloop 3 of FSHR was modeled based on the crystal structure of rhodopsin as a template.

[2] = test system: human FSHR; assay: FSH dependent intracellular cAMP assay, wild type and mutant FSHR in HEK 293 cells; type: cell-based; details: for FSH dependent cAMP induction / EC50 compared with the wild type receptor, in words: HEK 293 cells
Experimental: as §1, §2, §3

[3] = test system: FSHR; assay: ^125I-FSH binding to solubilized FSHR (NP-40); design: species or system human; details: solubilized mutant receptors
Experimental: Transfected cells were washed twice with ice cold 150 mM NaCl, 20 mM HEPES, pH 7.4 (buffer A). Cells were scraped on ice, collected in buffer A containing protease inhibitors (1 mM phenylmethylsulfonyl fluoride, 5 mM N-ethylmaleimide, and 10 mM EDTA), and pelleted by centrifugation at 1300×g for 10 minutes. Cells were resuspended in 0.6 ml of buffer A containing 1% NP-40, 20% glycerol, and the above protease inhibitors (buffer B), incubated on ice for 15 mm, and diluted with 5.4 ml of buffer A containing 20% glycerol plus the protease inhibitors (buffer C). The mixture was centrifuged at 100,000×g for 60 minutes. […] After incubation for 12 hours at 4° C., the solution was thoroughly mixed with 250 μl of buffer A containing bovine γ-globulin (5 μg/ml) and 750 μl of buffer A containing 20% polyethylene glycol 8000. After incubation for 10 minutes at 4° C., samples were pelleted at 1300×g for 30 mm and supernatants removed. Pellets were resuspended in 1.5 ml of buffer A containing 20% polyethylene glycol 8000, centrifuged, and counted for radioactivity.

B1: N^10A: human FSHR with Ala substituted for N10 (protein)
chain: CHHRICHCSARVFLCQESKVTEIPSDLPRNAIELRFVLTKLRVIQKGAFSGFGDLEKIEISQNDVLEVIEADVFSNLPKLHEIRIEKANNLLYINPEAFQNLPNLQYLLISNTGIKHLPDVHKIHSLQKVLLDIQDNINIHTIERNSFVGLSFESVILWLNKNGIQEIHNCAFNGTQLDELNLSDNNNLEELPNDVFHGASGPVILDISRTRIHSLPSYGLENLKKLRARSTYNLKKLPTLEKLVALMEASLTYPSHCCAFANWRRQISELHPICNKSILRQEVDYMTQARGQRSSLAEDNESSYSRGFDMTYTEFDYDLCNEVVDVTCSPKPDAFNPCEDIMGYNILRVLIWFISILAITGNIIVLVILTTSQYKLTVPRFLMCNLAFADLCIGIYLLLIASVDIHTKSQYHNYAIDWQTGAGCDAAGFFTVFASELSVYTLTAITLERWHTITHAMQLDCKVQLRHAASVMVMGWIFAFAAALFPIFGISSYMKVSICLPMDIDSPLSQLYVMSLLVLNVLAFVVICGCYIHIYLTVRNPNIVSSSSDTRIAKRMAMLIFTDFLCMAPISFFAISASLKVPLITVSKAKILLVLFHPINSCANPFLYAIFTKNFRRDFFILLSKCGCYEMQAQIYRTETSSTVHNTHPRNGHCSSAPRVTSGSTYILVPLSHLAQN
In the case of B1, the “FSH binding / Kd compared with the wild type receptor, in words” value [1] is reported as “improved hormone binding”, the “FSH binding / Kd compared with the wild type receptor, in words” value ([1]; listed as FSHR^N10A) is reported as “lower than the wild type value” and the “FSH dependent cAMP induction / EC50 compared with the wild type receptor, in words” value [2] is reported as “lower than the wild type value”.

B2: R^11A: human FSHR with Ala substituted for R11 (protein)
chain: B1 chain with A10N, R11A
For B2, the “FSH binding / Kd compared with the wild type receptor, in words” value [1] was “improved hormone binding” and the “FSH binding / Kd compared with the wild type receptor, in words” value ([1]; listed as FSHR^R11A) was “lower than the wild type value”.

B3: L^14A: human FSHR with Ala substituted for L14 (protein)
chain: B1 chain with A10N, L14A
For B3, the “FSH binding / Kd compared with the wild type receptor, in words” value [1] was “improved hormone binding”, the “FSH binding / Kd compared with the wild type receptor, in words” value ([1]; listed as FSHR^L14A) was “lower than the wild type value” and the “FSH dependent cAMP induction / EC50 compared with the wild type receptor, in words” value [2] was “lower than the wild type value”.

B4: S^9A: human FSHR with Ala substituted for S9 (protein)
chain: B1 chain with S9A, A10N
With B4 the “FSH dependent cAMP induction / EC50 compared with the wild type receptor, in words” value [2] was “lower than the wild type value”.

B5: V^12A: human FSHR with Ala substituted for V12 (protein)
chain: B1 chain with A10N, V12A
For B5, the “FSH dependent cAMP induction / EC50 compared with the wild type receptor, in words” value [2] was “lower than the wild type value”.

B6: F^13A: human FSHR with Ala substituted for F13 (protein)
chain: B1 chain with A10N, F13A
With B6 the “FSH dependent cAMP induction / EC50 compared with the wild type receptor, in words” value [2] was “lower than the wild type value”.

B7: S^18A: human FSHR with Ala substituted for S18 (protein)
chain: B1 chain with A10N, S18A
In the case of B7, the “FSH binding / Kd compared with the wild type receptor, in words” value [1] is reported as “higher Kd value”, the “reduction (improvement) of the EC50 value of cAMP induction compared with wild type” value ([2]; FSH dependent cAMP) is reported as 3 fold and the “FSH dependent cAMP induction / EC50 compared with the wild type receptor, in words” value [2] is reported as “considerably lower EC50 value”.

B8: I^23A: human FSHR with Ala substituted for I23 (protein)
chain: B1 chain with A10N, I23A
For B8, the “EC50 value of cAMP induction, fold higher than wild type” value ([2]; FSH dependent cAMP) was 23 fold and the “maximal cAMP level, fold lower than wild type” value ([2]; FSH dependent cAMP) was 2.6 fold.

B9: P^24A: human FSHR with Ala substituted for P24 (protein)
chain: B1 chain with A10N, P24A
B9 was tested, and the “FSH binding / Kd compared with the wild type receptor, in words” value [1] was “completely abrogated hormone binding” and the “FSH binding to receptors solubilized in NP-40” value [3] was “did not bind”.

B10: D^26A: human FSHR with Ala substituted for D26 (protein)
chain: B1 chain with A10N, D26A
With B10 the “FSH binding / Kd compared with the wild type receptor, in words” value [1] was “completely abrogated hormone binding” and the “FSH binding to receptors solubilized in NP-40” value [3] was “did not bind”.

B11: L^583 A: human FSHR exoloop 3 mutant, Ala for L583 (protein)
chain: B1 chain with A10N, L584A
B11 was tested, and the “FSH dependent cAMP induction / EC50 compared with the wild type receptor, in words” value [2] was “did not produce cAMP”.

B12: del: human FSHR deletion mutant, L583 deleted (protein, UniProt P23945 18-695, looked up, variant L583*)
Follicle-stimulating hormone …: CHHRICHCSNRVFLCQESKVTEIPSDLPRNAIELRFVLTKLRVIQKGAFSGFGDLEKIEISQNDVLEVIEADVFSNLPKLHEIRIEKANNLLYINPEAFQNLPNLQYLLISNTGIKHLPDVHKIHSLQKVLLDIQDNINIHTIERNSFVGLSFESVILWLNKNGIQEIHNCAFNGTQLDELNLSDNNNLEELPNDVFHGASGPVILDISRTRIHSLPSYGLENLKKLRARSTYNLKKLPTLEKLVALMEASLTYPSHCCAFANWRRQISELHPICNKSILRQEVDYMTQARGQRSSLAEDNESSYSRGFDMTYTEFDYDLCNEVVDVTCSPKPDAFNPCEDIMGYNILRVLIWFISILAITGNIIVLVILTTSQYKLTVPRFLMCNLAFADLCIGIYLLLIASVDIHTKSQYHNYAIDWQTGAGCDAAGFFTVFASELSVYTLTAITLERWHTITHAMQLDCKVQLRHAASVMVMGWIFAFAAALFPIFGISSYMKVSICLPMDIDSPLSQLYVMSLLVLNVLAFVVICGCYIHIYLTVRNPNIVSSSSDTRIAKRMAMLIFTDFCMAPISFFAISASLKVPLITVSKAKILLVLFHPINSCANPFLYAIFTKNFRRDFFILLSKCGCYEMQAQIYRTETSSTVHNTHPRNGHCSSAPRVTSGSTYILVPLSHLAQN
For B12, the “improvement of hormone binding affinity (decrease of Kd) compared with wild type” value ([1]; FSH binding, mutant versus wild type FSHR) was “more than 4 fold”.

B13: L^583 F: human FSHR mutant, Phe for L583 (protein)
chain: B1 chain with A10N, L584F
With B13 the “FSH dependent cAMP induction / EC50 compared with the wild type receptor, in words” value [2] was “induced significant amounts of cAMP with reasonable EC50 values”.

B14: L^583 Q: human FSHR mutant, Gln for L583 (protein)
chain: B1 chain with A10N, L584Q
In the case of B14, the “FSH dependent cAMP induction / EC50 compared with the wild type receptor, in words” value [2] is reported as “induced a marginal level of cAMP”.
